Reference: US20230295323A1 (DONGDA BIOSCIENCE INC SUZHOU, published 2023)
Substitutions are numbered along the chain they refer to. Names and notes keep the numbering of the source.

T1: human GITR on cells (293T-GITR, Jurkat-hGITR / Jurkat-GITR, Jurkat-GITR-NF-kB, 293T-GITR-NFkb-luc, primary … (human, UniProt Q9Y5U5 26-241))
T1 construct: whole, on cells; also called TNFRSF18; CD357
T1 sequence (looked up): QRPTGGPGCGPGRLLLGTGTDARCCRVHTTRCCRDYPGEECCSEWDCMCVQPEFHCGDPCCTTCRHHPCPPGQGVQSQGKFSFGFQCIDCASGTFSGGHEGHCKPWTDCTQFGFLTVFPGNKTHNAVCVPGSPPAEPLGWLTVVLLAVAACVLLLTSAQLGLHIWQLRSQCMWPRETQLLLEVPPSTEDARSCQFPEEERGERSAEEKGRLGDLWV

T2: GITR-ECD-hFc (UniProt Q9Y5U5 26-162, limits assumed)
T2 construct: extracellular domain; not shown: human Fc (hFc)
T2 sequence (looked up): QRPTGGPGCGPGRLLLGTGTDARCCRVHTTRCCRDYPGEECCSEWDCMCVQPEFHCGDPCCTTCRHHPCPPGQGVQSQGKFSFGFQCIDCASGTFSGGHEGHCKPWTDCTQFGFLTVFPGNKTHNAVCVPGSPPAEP

T3: human GITR (ECD)-mFc (human, UniProt Q9Y5U5 26-162)
T3 construct: extracellular domain; Bought (Dongda Bioscience); also called GITR-mFc; not shown: mouse Fc (mFc)
T3 sequence (looked up): T2 sequence (looked up)

B1: 9B3 (murine) (antibody, V domains shown)
VH: QVQLQQSGAELMNLGASVKISCKATGYPVSRYWIEWLKQRPGHGPEWIGEILPGSDYANYNEKFKGKATFTADISSNSAYMQLSSLTSEDSAVYYCSRKGAYYALDFWGQGTSVTVSS
VL: DIVMTQSPATLSVTPGERVSLSCRASQSVNNYLHWYQQKSHESPRLLISYVSQSISGISSRFSGSGSGTDFTLIIHSVETEDFGMYFCQQSNRWPLTFGAGTKLELK
notes: Mouse hybridoma monoclonal antibody
B2: 13G12 (murine) (antibody, V domains shown)
VH: QVQLQQPGTELVKPGASVKLSCKASGYTFTSNWMNWVKQRPGHGLEWIGNIYPSNGGTNYNEKFKSKATLTVDKSSSTAYMQLRGLTSEDSAVYYCVRHSNYVGAMDYWGQGTSVTVSS
VL: QIVLTQSPAIMSASPGEKVTMTCGASSSVSYMYWFQQKPGSSPRLLIYDTFNLASGVPVRFSGSESGTSYSLTISRMEAEDAATYYCQHWSSYPPTFGSGTKLEIDR
notes: as for B1
B3: h4B11-hIgG1 (antibody, V domains shown)
VH: EVQLVQSGAEVKKPGASVKVSCKASGFTFTDSVLHWVRQAPGQRLEWIGYIHPYNDDTKFHDSFKGRATLTSDKSASTAYMELSSLRSEDTAVYYCSRNDELRVALDYWGQGTLVTVSS
VL: EIVLTQSPATLSLSPGERATLSCRASQSVSTSTYSYVHWYQQKPGQAPRLLIKYASNLESGIPARFSGSGSGTDFTLTISSLEPEDFAVYYCQHSWGNPWTFGGGTKVEIKR
notes: Humanized 4B11, human IgG1; also called 4B11 (humanized); h4B11-IgG1
B4: 10E11VH(G24A/A67V)-hIgG1(3A) (antibody)
heavy: EVQLVQSGAEVKKPGESLRISCKASGYPVSRYWIEWVRQMPGKGLEWIGEILPGSDYANYNEKFKGHVTFSADISISTAYLQWSSLKASDTAMYYCSRKGAYYALDFWGQGTLVTVSSASTKGPSVFPLAPSSKSTSGGTAALGCLVKDYFPEPVTVSWNSGALTSGVHTFPAVLQSSGLYSLSSVVTVPSSSLGTQTYICNVNHKPSNTKVDKKVEPKSCDKTHTCPPCPAPELLGGPSVFLFPPKPKDTLMISRTPEVTCVVVDVSHEDPEVKFNWYVDGVEVHNAKTKPREEQYNATYRVVSVLTVLHQDWLNGKEYKCKVSNKALPAPIAATISKAKGQPREPQVYTLPPSRDELTKNQVSLTCLVKGFYPSDIAVEWESNGQPENNYKTTPPVLDSDGSFFLYSKLTVDKSRWQQGNVFSCSVMHEALHNHYTQKSLSLSPG
light: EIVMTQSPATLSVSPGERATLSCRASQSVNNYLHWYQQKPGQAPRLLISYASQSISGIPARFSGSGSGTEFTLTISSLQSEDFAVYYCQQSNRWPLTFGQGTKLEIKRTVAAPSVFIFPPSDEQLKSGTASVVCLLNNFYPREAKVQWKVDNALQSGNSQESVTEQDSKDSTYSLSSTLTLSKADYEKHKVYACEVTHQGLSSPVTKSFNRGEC
notes: Humanized 10E11 (AV), human IgG1 with the 3A Fc variant; also called 10E11VH(AV)-hIgG1(3A); h10E11(AV)-hIgG1(3A)
B5: 3F5 (humanized) -hIgG1 (antibody, V domains shown)
VH: QVQLVQSGAEVKKPGASVKVSCKASGYTFTDHYMHWVRQAPGQGLEWIGDINPNSGGTINNQNFKGRATLTVDKSISTAYMELSRLRSDDTAVYYCARGFSGLAYWGQGTLVTVSS
VL: DIVMTQTPLSSPVTLGQPASISCKSSQSLLDRDGKTYLNWLQQRPGQPPRRLIYLVSILDSGVPDRFSGSGAGTDFTLKISRVEAEDVGVYYCWQGTHFPWTFGQGTKLEIKR
notes: also called h3F5-hIgG1; h3F5-IgG1
B6: h4E4-hIgG1 (antibody, V domains shown)
VH: QVQLVQSGAEVKKPGASVKVSCKASGYTFTDHYMNWVRQAPGQGLEWIGDIDPKNGGTLYNQNFKGRATLTVDKSISTAYMELSRLRSDDTAVYYCARREAMDYWGQGTLVTVSS
VL: DVVMTQSPLSLPVTPGEPASISCRSSQSIVYSNGNTYLNWYLQKPGQSPQLLIYKVSNRFSGVPDRFSGSGSGTDFTLKISRVEAEDVGVYYCFQGSHVPWTFGGGTKVEIKR
notes: Humanized 4E4, human IgG1; also called 4E4 (humanized); h4E4-IgG1
B7: 4E4 (murine) (antibody, V domains shown)
VH: EVQLQQSGPELVKPGASVKISCKASGYTFTDHYMNWVKQSHGKSLEWIGDIDPKNGGTLYNQNFKGRATLTVDKSSSTAYMDLRSLTSEDSAVYYCARREAMDYWGQGTSVTVSS
VL: B6 VL with V3L, S7I, T14S, P15F, E17D, P18Q, Q50K, V88L, V109L
notes: as for B1

Biological target: T1, human GITR on cells (293T-GITR, …)
Test: FACS competition on Jurkat-hGITR cells; competitor biotin-labeled human GITR ligand
Method: FACS assay for the blocking effect of the antibodies: FACS assay was conducted by using BD C6 to determine the blocking effect of the hybridoma antibodies on the binding of biotin-labeled human GITR ligands to Jurkat-hGITR cells. Jurkat-hGITR cells were suspended in FACS buffer (PBS containing 3% FBS). Diluted hybridoma antibodies were added into the cell suspension and the mixture was incubated in a 96-well plate for 1 hour at 4° C. […] After incubation, the 96-well plate was washed 3 times, and mouse anti-biotin PE antibodies (Biolgend, Cat No: 409004) were added and incubated at 4° C. for 0.5 hours. The cells in the 96-well plate were washed 3 times and finally analyzed with BD C6.

Row | IC50 [µg/mL] | Binder
1 | 0.0413 | B1
2 | 4 | B2

Biological target: T1, human GITR on cells (293T-GITR, …)
Test: FACS, blocking of GITR-L (0.25 ug/mL) binding to Jurkat-GITR cells

Row | IC50 [µg/mL] | Binder
3 | 0.284 | B3
4 | 0.151 | B4
5 | 0.101 | B5
6 | 0.169 | B6

Biological target: T2, GITR-ECD-hFc
Test: ELISA, plate-coated GITR-ECD-hFc
Method: ELISA assay: a 96-well ELISA plate (Corning, Cat No: 9018) was inoculated with GITR-ECD-hFc, left standing overnight at 4° C., and washed 3 times with washing buffer (PBS+0.05% Tween 20), then blocking buffer (PBS+1% BSA (Sigma, Cat No: V90093)) was added, and the 96-well ELISA plate was incubated for 1 hour and washed 3 times; hybridoma supernatant was added, the 96-well ELISA plate was incubated for 1 hour and washed 3 times, 100 µL of goat anti-mouse IgG secondary antibodies (Thermo, Cat No: 31432) diluted at a ratio of 1:10000 was added into each well, and the 96-well ELISA plate was incubated at room temperature for 1 hour and washed 3 times. 100 µL of TMB (Biosubstrate Technologies, Cat No: ES-002) was added into each well and left standing for 3 minutes for color development, then a stop solution (2N H₂SO₄) was added at a dose of 100 µL/well to terminate the reaction, and OD450×signal of each sample was measured with a Tecan Spark microplate reader.

Row | EC50 [µg/mL] | Binder
7 | 0.0103 | B2
8 | 0.0017 | B7

Biological target: T3, human GITR (ECD)-mFc
Test: ELISA, plate-coated GITR-mFc
Method: As indicated by the X axis, the concentrations of the test antibodies were 20000 ng/mL, 2000 ng/mL, 200 ng/mL, 20 ng/mL, 2 ng/mL, 0.2 ng/mL, 0.02 ng/mL, 0.002 ng/mL, 0.0002 ng/mL, and 0.00002 ng/mL.

Row | EC50 (read off the curve) [µg/mL] | Binder
9 | ~0.005 | B3
10 | ~0.006 | B4
11 | ~0.02 | B5
12 | ~0.06 | B6

Biological target: T1, human GITR on cells (293T-GITR, …)
Test: FACS (MFI), binding to Jurkat-GITR cells

Row | EC50 [µg/mL] | Binder
13 | 0.132 | B3
14 | 0.102 | B4
15 | 0.112 | B5
16 | 0.0895 | B6
